Here are results for 1 molecule from patent publication US20090004163, “METHOD OF ENHANCING PROLIFERATION AND/OR HEMATOPOIETIC DIFFERENTIATION OF STEM CELLS” (THE CHILDREN'S MEDICAL CENTER CORPORATION, published 2009).

This data set addresses Cdx4 F170L (kggtl240) (Danio rerio, UniProt A8KBT9 A8KBT9:1-270, F170L). Kind of data set: EMSA; mutation prevents binding to cdx4 consensus site. The note with it: tags: TNT SP6 IVT (Promega).

Sequence of Cdx4 F170L (kggtl240) (A8KBT9 entry or part of it F170L | F170L F170L, one chain of several): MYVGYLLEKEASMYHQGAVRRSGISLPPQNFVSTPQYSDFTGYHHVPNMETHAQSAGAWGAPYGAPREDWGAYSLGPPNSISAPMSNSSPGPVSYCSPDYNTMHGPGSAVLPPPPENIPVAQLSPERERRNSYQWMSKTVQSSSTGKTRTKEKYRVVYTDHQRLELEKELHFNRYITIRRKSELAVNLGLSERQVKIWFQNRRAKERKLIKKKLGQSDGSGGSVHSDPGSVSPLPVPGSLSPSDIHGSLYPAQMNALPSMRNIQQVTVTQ

B1: consensus cdx binding site probe (dsDNA)
DNA 1: GAGAAATTTATATTGT
DNA 2: ACAATATAAATTTCTC
On to B1, for which the binding result is recorded as “no binding”.
